# Test results published in publication PMC2756588.
# T1: Lsb3, P43603
# T1 sequence (P43603 385-451, looked up): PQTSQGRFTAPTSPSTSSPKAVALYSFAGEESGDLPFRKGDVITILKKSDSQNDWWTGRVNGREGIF
# T2: Bud14, P27637
# T2 sequence (P27637 247-328, looked up): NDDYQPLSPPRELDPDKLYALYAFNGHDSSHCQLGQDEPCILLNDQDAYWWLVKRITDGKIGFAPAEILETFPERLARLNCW
# T3: Hse1, P38753
# T3 sequence (P38753 208-285, looked up): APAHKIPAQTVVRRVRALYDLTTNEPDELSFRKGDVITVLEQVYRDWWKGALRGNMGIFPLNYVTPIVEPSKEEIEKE
# T4: Pex13, P80667
# T4 sequence (P80667 295-386, looked up): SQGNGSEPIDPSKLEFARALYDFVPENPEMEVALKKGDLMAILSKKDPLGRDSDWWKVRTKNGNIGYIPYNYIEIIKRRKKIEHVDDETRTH
# T5: Lsb4, P32793
# T5 sequence (P32793 402-468, looked up): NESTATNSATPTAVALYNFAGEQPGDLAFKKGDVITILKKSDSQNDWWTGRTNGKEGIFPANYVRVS
# T6: Cyk3, Q07533
# T6 sequence (Q07533 1-83, looked up): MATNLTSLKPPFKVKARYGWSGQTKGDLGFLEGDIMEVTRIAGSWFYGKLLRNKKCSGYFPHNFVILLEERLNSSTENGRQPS
# T7: Pin3, Q06449
# T7 sequence (Q06449 53-122, looked up): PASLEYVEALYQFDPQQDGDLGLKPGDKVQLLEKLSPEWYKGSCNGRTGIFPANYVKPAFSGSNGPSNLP
# T8: Bzz1-2, P38822
# T8 sequence (P38822 568-633, looked up): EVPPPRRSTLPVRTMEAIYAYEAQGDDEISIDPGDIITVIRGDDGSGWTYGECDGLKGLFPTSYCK
# T9: Nbp2, Q12163
# T9 sequence (Q12163 103-180, looked up): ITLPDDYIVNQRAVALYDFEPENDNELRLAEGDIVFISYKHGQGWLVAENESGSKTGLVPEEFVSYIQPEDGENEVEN
# T10: Boi1, P38041
# T10 sequence (P38041 1-86, looked up): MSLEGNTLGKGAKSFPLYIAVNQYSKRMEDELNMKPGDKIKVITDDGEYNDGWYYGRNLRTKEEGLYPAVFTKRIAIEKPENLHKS
# T11: Bbc1, P47068
# T11 sequence (P47068 1-78, looked up): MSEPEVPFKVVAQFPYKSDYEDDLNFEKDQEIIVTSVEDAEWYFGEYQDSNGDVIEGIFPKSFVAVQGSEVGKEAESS
# T12: Bzz1-1, P38822
# T12 sequence (P38822 478-572, looked up): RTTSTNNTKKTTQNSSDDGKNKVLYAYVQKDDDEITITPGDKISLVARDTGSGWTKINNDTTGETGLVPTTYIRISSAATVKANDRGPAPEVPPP
# T13: Myo5, Q04439
# T13 sequence (Q04439 1072-1160, looked up): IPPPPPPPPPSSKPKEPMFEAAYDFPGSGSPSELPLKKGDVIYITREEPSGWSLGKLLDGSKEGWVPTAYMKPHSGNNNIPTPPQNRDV
# T14: Boi2, P39969
# T14 sequence (P39969 32-116, looked up): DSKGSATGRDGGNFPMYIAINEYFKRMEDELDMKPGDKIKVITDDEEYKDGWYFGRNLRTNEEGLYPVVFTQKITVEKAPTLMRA
# T15: Sla1-3, P32790
# T15 sequence (P32790 344-424, looked up): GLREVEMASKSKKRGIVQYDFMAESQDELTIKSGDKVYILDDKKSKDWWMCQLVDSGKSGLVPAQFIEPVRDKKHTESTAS
# T16: Sla1-2, P32790
# T16 sequence (P32790 60-140, looked up): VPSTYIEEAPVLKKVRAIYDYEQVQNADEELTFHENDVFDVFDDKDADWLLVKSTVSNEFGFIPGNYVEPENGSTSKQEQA
# T17: Hof1, Q05080
# T17 sequence (Q05080 590-669, looked up): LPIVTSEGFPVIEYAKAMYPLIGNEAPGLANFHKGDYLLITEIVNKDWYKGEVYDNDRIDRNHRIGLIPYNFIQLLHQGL
# T18: Fus1, P11710
# T18 sequence (P11710 432-512, looked up): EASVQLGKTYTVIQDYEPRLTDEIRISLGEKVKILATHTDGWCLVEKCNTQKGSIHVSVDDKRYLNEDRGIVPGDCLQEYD
# T19: Lsb1, P53281
# T19 sequence (P53281 45-122, looked up): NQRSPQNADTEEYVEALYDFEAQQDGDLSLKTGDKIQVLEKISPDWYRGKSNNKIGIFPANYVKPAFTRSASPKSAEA
# T20: Cdc25, P04821
# T20 sequence (P04821 50-136, looked up): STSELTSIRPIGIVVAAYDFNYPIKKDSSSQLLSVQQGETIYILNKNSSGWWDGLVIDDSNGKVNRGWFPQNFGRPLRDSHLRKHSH
# T21: Abp1, P15891
# T21 sequence (P15891 535-592, looked up): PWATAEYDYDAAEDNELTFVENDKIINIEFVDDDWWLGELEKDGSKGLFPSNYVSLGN
# What was measured:
# Test in all cases: SPOT array
# Lsb3, P43603 = biological target: T1, Lsb3, P43603; conditions: median of control spots 406
# Bud14, P27637 = biological target: T2, Bud14, P27637; conditions: median of control spots 956
# Bem1-2, P29366 = conditions: median of control spots 4347
# Bem1-2, P29366, sequence (P29366 139-227): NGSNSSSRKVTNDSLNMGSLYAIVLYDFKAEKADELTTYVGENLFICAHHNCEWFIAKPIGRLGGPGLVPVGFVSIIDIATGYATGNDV
# Hse1, P38753 = biological target: T3, Hse1, P38753; conditions: median of control spots 1727
# Pex13, P80667 = biological target: T4, Pex13, P80667; conditions: median of control spots 1341
# Lsb4, P32793 = biological target: T5, Lsb4, P32793; conditions: median of control spots 397
# Cyk3, Q07533 = biological target: T6, Cyk3, Q07533; conditions: median of control spots 1451
# Pin3, Q06449 = biological target: T7, Pin3, Q06449; conditions: median of control spots 2171
# Bem1-1, P29366 = conditions: median of control spots 4282
# Bem1-1, P29366, sequence (P29366 55-141): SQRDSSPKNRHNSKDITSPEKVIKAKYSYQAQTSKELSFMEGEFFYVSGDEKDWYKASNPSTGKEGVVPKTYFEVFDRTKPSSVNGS
# Bzz1-2, P38822 = biological target: T8, Bzz1-2, P38822; conditions: median of control spots 4538
# Nbp2, Q12163 = biological target: T9, Nbp2, Q12163; conditions: median of control spots 357
# Boi1, P38041 = biological target: T10, Boi1, P38041; conditions: median of control spots 1162
# Bbc1, P47068 = biological target: T11, Bbc1, P47068; conditions: median of control spots 796
# Bzz1-1, P38822 = biological target: T12, Bzz1-1, P38822; conditions: median of control spots 4446
# Myo5, Q04439 = biological target: T13, Myo5, Q04439; conditions: median of control spots 471
# Boi2, P39969 = biological target: T14, Boi2, P39969; conditions: median of control spots 1161
# Rvs167, P39743 = conditions: median of control spots 2707
# Rvs167, P39743, sequence (P39743 419-482): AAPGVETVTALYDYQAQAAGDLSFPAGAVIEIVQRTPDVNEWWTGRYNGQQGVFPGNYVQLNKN
# Sla1-3, P32790 = biological target: T15, Sla1-3, P32790; conditions: median of control spots 5475
# Sla1-2, P32790 = biological target: T16, Sla1-2, P32790; conditions: median of control spots 712
# Hof1, Q05080 = biological target: T17, Hof1, Q05080; conditions: median of control spots 4086
# Fus1, P11710 = biological target: T18, Fus1, P11710; conditions: median of control spots 1200
# Sho1, P40073 = conditions: median of control spots 1148
# Sho1, P40073, sequence (P40073 287-367): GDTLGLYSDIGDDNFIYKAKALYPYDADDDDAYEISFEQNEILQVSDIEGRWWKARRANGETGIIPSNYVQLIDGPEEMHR
# GST = conditions: median of control spots 978
# Lsb1, P53281 = biological target: T19, Lsb1, P53281; conditions: median of control spots 388
# Cdc25, P04821 = biological target: T20, Cdc25, P04821; conditions: median of control spots 969
# Abp1, P15891 = biological target: T21, Abp1, P15891; conditions: median of control spots 935
# Myo3, P36006 = conditions: median of control spots 468
Binder,"SPOT intensity (Lsb3, P43603)","SPOT intensity (Bud14, P27637)","SPOT intensity (Bem1-2, P29366)","SPOT intensity (Hse1, P38753)","SPOT intensity (Pex13, P80667)","SPOT intensity (Lsb4, P32793)","SPOT intensity (Cyk3, Q07533)","SPOT intensity (Pin3, Q06449)","SPOT intensity (Bem1-1, P29366)","SPOT intensity (Bzz1-2, P38822)","SPOT intensity (Nbp2, Q12163)","SPOT intensity (Boi1, P38041)","SPOT intensity (Bbc1, P47068)","SPOT intensity (Bzz1-1, P38822)","SPOT intensity (Myo5, Q04439)","SPOT intensity (Boi2, P39969)","SPOT intensity (Rvs167, P39743)","SPOT intensity (Sla1-3, P32790)","SPOT intensity (Sla1-2, P32790)","SPOT intensity (Hof1, Q05080)",further results
NENKKLPPAPTVFGL,1,2,0,0,9,0,1,0,2,0,0,2,0,3,0,0,2,1,0,25,"SPOT intensity (Fus1, P11710): 0; SPOT intensity (Sho1, P40073): 927; SPOT intensity (GST): 0; SPOT intensity (Lsb1, P53281): 0; SPOT intensity (Cdc25, P04821): 4; SPOT intensity (Abp1, P15891): 9; SPOT intensity (Myo3, P36006): 0"
RRSKSLPITPKSIFN,0,10,0,0,8,0,0,4,0,0,0,0,15,0,0,0,0,21,1,0,"SPOT intensity (Fus1, P11710): 26; SPOT intensity (Sho1, P40073): 1070; SPOT intensity (GST): 2; SPOT intensity (Lsb1, P53281): 0; SPOT intensity (Cdc25, P04821): 15; SPOT intensity (Abp1, P15891): 117; SPOT intensity (Myo3, P36006): 0"
KNRKNLPTIPIRLSG,25,3,16,2,13,103,1,15,4,4,47,3,25,0,1,2,86,55,0,26,"SPOT intensity (Fus1, P11710): 24; SPOT intensity (Sho1, P40073): 1660; SPOT intensity (GST): 0; SPOT intensity (Lsb1, P53281): 1220; SPOT intensity (Cdc25, P04821): 5; SPOT intensity (Abp1, P15891): 333; SPOT intensity (Myo3, P36006): 5"

# Further lines, with some results ahead:
"SPOT intensity (Lsb3, P43603)","SPOT intensity (Bud14, P27637)","SPOT intensity (Bem1-2, P29366)","SPOT intensity (Hse1, P38753)","SPOT intensity (Pex13, P80667)","SPOT intensity (Lsb4, P32793)","SPOT intensity (Cyk3, Q07533)","SPOT intensity (Pin3, Q06449)","SPOT intensity (Bem1-1, P29366)","SPOT intensity (Bzz1-2, P38822)","SPOT intensity (Nbp2, Q12163)","SPOT intensity (Boi1, P38041)","SPOT intensity (Bbc1, P47068)","SPOT intensity (Bzz1-1, P38822)","SPOT intensity (Myo5, Q04439)","SPOT intensity (Boi2, P39969)","SPOT intensity (Rvs167, P39743)","SPOT intensity (Sla1-3, P32790)","SPOT intensity (Sla1-2, P32790)","SPOT intensity (Hof1, Q05080)",Binder,further results
4,0,0,1,12,2,0,2,1,0,0,0,0,0,0,0,2,0,1,354,EREKALPPIPFTTTL,"SPOT intensity (Fus1, P11710): 0; SPOT intensity (Sho1, P40073): 1480; SPOT intensity (GST): 0; SPOT intensity (Lsb1, P53281): 16; SPOT intensity (Cdc25, P04821): 0; SPOT intensity (Abp1, P15891): 0; SPOT intensity (Myo3, P36006): 0"
1,20,0,5,8,2,0,5,1,1,49,3,19,0,0,1,0,26,0,0,RRSKSLPTTPGIRSG,"SPOT intensity (Fus1, P11710): 63; SPOT intensity (Sho1, P40073): 1350; SPOT intensity (GST): 0; SPOT intensity (Lsb1, P53281): 8; SPOT intensity (Cdc25, P04821): 17; SPOT intensity (Abp1, P15891): 229; SPOT intensity (Myo3, P36006): 12"
2,0,0,59,688,0,0,0,0,2,0,1,0,0,0,0,0,0,0,1440,IVNKPLPPLPVAGSS,"SPOT intensity (Fus1, P11710): 0; SPOT intensity (Sho1, P40073): 2240; SPOT intensity (GST): 0; SPOT intensity (Lsb1, P53281): 0; SPOT intensity (Cdc25, P04821): 0; SPOT intensity (Abp1, P15891): 301; SPOT intensity (Myo3, P36006): 0"
